# Experimental data reported in patent publication US20190248888A1, “METHODS OF LOWERING BLOOD GLUCOSE LEVELS” (Regeneron Pharmaceuticals, Inc., priority 2016, published 2019).
# Test system: isolated pancreatic islets from mice
# Experiment: RNAseq gene expression in isolated pancreatic islets of GCGR antibody treated mice (Table 5)
# Type: in vivo, mouse
# Conditions: 10 mg/kg, 21 days
# Procedure: Mouse islets were isolated by density gradient separation after perfusing pancreas with Liberase TL (Roche, Indianapolis) through the common bile duct. Following a 13 min digestion at 37° C., the pancreas solution was washed and filtered through a 400-μm wire mesh strainer and islets were separated by Histopaque gradient centrifugation (Sigma-Aldrich). Isolated islets were cultured overnight in RPMI-1640 medium supplemented with 10% (v/v) FBS, 10 mM HEPES, 50 μM β-mercaptoethanol, 1.0 mM sodium-pyruvate, 100 U/mL penicillin and 100 μg/mL streptomycin at 37° C. with a 5% CO2 in air atmosphere.
# Total RNA was purified from all samples using MagMAX™-96 for Microarrays Total RNA Isolation Kit (Ambion by Life Technologies) according to manufacturer's specifications. Genomic DNA was removed using MagMAX™Turbo™DNase Buffer and TURBO DNase from the MagMAX kit listed above (Ambion by Life Technologies). mRNA was purified from total RNA using Dynabeads® mRNA Purification Kit (Invitrogen). Strand-specific RNA-seq libraries were prepared using ScriptSeq™ mRNA-Seq Library Preparation Kit (Epicentre). Twelve-cycle PCR was performed to amplify libraries. Sequencing was performed on Illumina HiSeq®2000 (Illumina) by multiplexed single-read run with 33 cycles.
# Raw sequence data (BCL files) were converted to FASTQ format via Illumina Casava 1.8.2. Reads were decoded based on their barcodes and read quality was evaluated with FastQC (http://www.bioinformatics.babraham.ac.uk/projects/fastqc/). Reads were mapped to the mouse transcriptome (NCBI GRCh37) using CLC Genomics Workbench Version 7.0 (CLCbio) or TopHat2 (Version 2.0.10) allowing two mismatches. Reads mapped to the exons of a gene were summed at the gene level. To identify differentially expressed genes, the statistical significance (p-value) of the differential expressions was assessed with DESeq package (version 1.6 or 2.0). […]
# [1] = α-GCGR vs Control, isolated islets
molecule,measurement,setting,value
"α-GCGR: potent monoclonal GCGR blocking antibody, HCVR/LCVR SEQ ID NOs: 86/88 (antibody, V domains shown) VH: EVQLVESGGGLVQPGGSLRLSCAASGFTFSNYLMNWVRQAPGKGLEWLANIQEDGIEKYYVDSVKGRFTISRDNAKNSLYLQMNSLRAEDTAVYYCAREPSHYDILTGYDYYYGMDVWGQGTTVTVS VL: DIQMTQSPSSLSASVGDRVTITCRASQGIRNDLGWYQQKPGKAPKRLIYAASSLQSGVPSRFSGSGSGTEFILTVSSLQPEDFATYYCLQYNSNPFTFGPGTKVDIK",Slc38a5 gene expression in isolated pancreatic islets,"mice, vs control antibody",most upregulated gene
same,1700086L19Rik Fold change,[1],1.89
same,1810011O10Rik Fold change,[1],−1.64
same,1810041L15Rik Fold change,[1],1.67
same,4930539E08Rik Fold change,[1],1.96
same,9030617O03Rik Fold change,[1],1.72
same,AW551984 Fold change,[1],1.69
same,Acta1 Fold change,[1],−1.79
same,Agpat4 Fold change,[1],1.73
same,Agt Fold change,[1],1.78
same,Ang Fold change,[1],1.62
same,Ano1 Fold change,[1],−1.78
same,Anxa3 Fold change,[1],−1.53
same,Anxa13 Fold change,[1],−1.60
same,Apoa2 Fold change,[1],1.68
same,Apod Fold change,[1],1.53
same,Apol7a Fold change,[1],−1.51
same,Arg1 Fold change,[1],1.53
same,Arx Fold change,[1],1.59
same,Asb11 Fold change,[1],−1.51
same,Avpr1b Fold change,[1],2.54
same,Basp1 Fold change,[1],1.65
same,Blnk Fold change,[1],1.55
same,Bok Fold change,[1],−1.85
same,Car9 Fold change,[1],−1.55
same,Cdc42ep1 Fold change,[1],−1.54
same,Clec2d Fold change,[1],1.82
same,Clic6 Fold change,[1],−1.69
same,Clu Fold change,[1],−1.80
same,Cnih2 Fold change,[1],1.55
same,Cobl Fold change,[1],1.58
same,Ctse Fold change,[1],−1.50
same,Dbpht2 Fold change,[1],1.87
same,Dmbt1 Fold change,[1],−1.61
same,Dpp6 Fold change,[1],1.79
same,Drc1 Fold change,[1],1.96
same,Eda2r Fold change,[1],1.59
same,Eef1a2 Fold change,[1],2.18
same,Ehf Fold change,[1],1.61
same,Etv1 Fold change,[1],1.62
same,F5 Fold change,[1],1.51
same,Ffar4 Fold change,[1],1.78
same,Fgd3 Fold change,[1],−1.67
same,Fgl2 Fold change,[1],1.65
same,Gamt Fold change,[1],−1.50
same,Gbp8 Fold change,[1],1.84
same,Gbp9 Fold change,[1],1.74
same,Gc Fold change,[1],1.83
same,Gcg Fold change,[1],3.55
same,Gcnt4 Fold change,[1],1.58
same,Gfra1 Fold change,[1],1.53
same,Gfra3 Fold change,[1],2.71
same,Gm609 Fold change,[1],2.04
same,Gm20554 Fold change,[1],1.67
same,Gng2 Fold change,[1],1.63
same,Gpr119 Fold change,[1],1.54
same,Gpx3 Fold change,[1],2.86
same,Hspb1 Fold change,[1],−1.54
same,Ifih1 Fold change,[1],2.33
same,Igsf23 Fold change,[1],−1.65
same,Irx1 Fold change,[1],1.83
same,Irx2 Fold change,[1],2.00
same,Itgb4 Fold change,[1],−1.69
same,Jchain Fold change,[1],1.57
same,Kcna2 Fold change,[1],−1.68
same,Kcnab3 Fold change,[1],−1.73
same,Kcnf1 Fold change,[1],−1.56
same,Kcnk3 Fold change,[1],2.23
same,Klb Fold change,[1],1.77
same,Klhl13 Fold change,[1],1.91
same,Krt19 Fold change,[1],−1.61
same,Krt20 Fold change,[1],−1.63
same,Krt23 Fold change,[1],−1.96
same,Lamb3 Fold change,[1],−1.71
same,Mafb Fold change,[1],1.86
same,Mamld1 Fold change,[1],1.75
same,Mapk13 Fold change,[1],−1.50
same,Matn2 Fold change,[1],−1.55
same,Ndst4 Fold change,[1],2.71
same,Necab2 Fold change,[1],−1.50
same,Nefm Fold change,[1],1.53
same,Npr1 Fold change,[1],−1.65
same,Nptxr Fold change,[1],−1.57
same,Nsg2 Fold change,[1],1.56
same,Ntn1 Fold change,[1],−1.61
same,Nudt11 Fold change,[1],2.00
same,Nyap1 Fold change,[1],1.77
same,Ocrl Fold change,[1],1.57
same,Oit1 Fold change,[1],1.71
same,Olfm3 Fold change,[1],1.96
same,Oxtr Fold change,[1],1.53
same,Pdk4 Fold change,[1],2.83
same,Peg10 Fold change,[1],2.06
same,Pla2g2d Fold change,[1],1.50
same,Ptf1a Fold change,[1],−1.95
same,Ptprd Fold change,[1],1.62
same,Ptprg Fold change,[1],1.52
same,Rasd1 Fold change,[1],−1.54
same,Rbms3 Fold change,[1],1.51
same,Rbp4 Fold change,[1],1.64
same,Rcn1 Fold change,[1],1.54
same,Rragb Fold change,[1],1.67
same,Sema3e Fold change,[1],1.81
same,Serpinb6b Fold change,[1],−1.68
same,Serpine2 Fold change,[1],2.80
same,Serping1 Fold change,[1],1.71
same,Sftpd Fold change,[1],2.07
same,Sgce Fold change,[1],1.84
same,Sh2d4a Fold change,[1],−1.52
same,Sh3bgr Fold change,[1],1.54
same,Slc38a3 Fold change,[1],−1.54
same,Slc38a5 Fold change,[1],5.54
same,Smarca1 Fold change,[1],1.88
same,Spns2 Fold change,[1],−1.76
same,St8sia1 Fold change,[1],−1.67
same,Syt16 Fold change,[1],1.63
same,Tead2 Fold change,[1],−1.60
same,Tesc Fold change,[1],1.54
same,Tmsb15b1 Fold change,[1],1.60
same,Tspan1 Fold change,[1],−2.50
same,Ttr Fold change,[1],4.27
same,Vnn1 Fold change,[1],−1.50
same,Vwde Fold change,[1],2.23
same,Wfdc16 Fold change,[1],1.51
same,Wnk3 Fold change,[1],2.33
